Assays:
[1] = biological target: T1, His-tagged EspB (EspB-His), recombinant EPEC EspB (enteropathogenic E. coli (EPEC) O127:H6 …, UniProt Q05129 1-321); assay: ELISA on coated EspB, 274 mM NaCl
T1 construct: also called recombinant EspB (full-length); full-length EspB
T1 sequence: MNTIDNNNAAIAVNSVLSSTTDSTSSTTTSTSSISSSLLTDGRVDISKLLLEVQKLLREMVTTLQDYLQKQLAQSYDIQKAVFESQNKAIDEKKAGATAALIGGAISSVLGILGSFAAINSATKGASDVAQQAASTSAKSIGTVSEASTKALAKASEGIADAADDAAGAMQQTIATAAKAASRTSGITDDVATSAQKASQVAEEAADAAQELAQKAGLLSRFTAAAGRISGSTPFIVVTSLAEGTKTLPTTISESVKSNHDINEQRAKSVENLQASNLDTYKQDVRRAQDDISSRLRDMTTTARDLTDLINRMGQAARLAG

[2] = biological target: T1, His-tagged EspB (EspB-His), recombinant …; assay: ELISA on coated EspB, antibody diluted in 3% milk in PBS or in goat or horse serum with 1% human serum (one reading for the bundle of three curves)
[3] = biological target: T1, His-tagged EspB (EspB-His), recombinant …; assay: ELISA on coated EspB, 45.6, 68.5 and 137 mM NaCl (one reading for the bundle)
[4] = biological target: T1, His-tagged EspB (EspB-His), recombinant …; assay: ELISA on coated EspB, 411 mM NaCl
[5] = biological target: T2, Salmonella EspB homolog (Salmonella enterica serovar Typhimurium, UniProt D0ZV21 1-409); assay: western blot of bacterial supernatant with mAb-EspB-B7
T2 sequence: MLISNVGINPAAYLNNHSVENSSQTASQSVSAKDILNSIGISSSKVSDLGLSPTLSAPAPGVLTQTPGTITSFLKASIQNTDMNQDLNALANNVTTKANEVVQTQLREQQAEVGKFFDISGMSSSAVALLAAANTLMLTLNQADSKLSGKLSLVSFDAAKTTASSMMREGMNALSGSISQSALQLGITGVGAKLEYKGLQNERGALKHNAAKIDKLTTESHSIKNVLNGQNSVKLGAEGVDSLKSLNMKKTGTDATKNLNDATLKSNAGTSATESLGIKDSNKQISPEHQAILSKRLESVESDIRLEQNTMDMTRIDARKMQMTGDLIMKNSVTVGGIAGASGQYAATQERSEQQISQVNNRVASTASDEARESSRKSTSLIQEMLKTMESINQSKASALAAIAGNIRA

[6] = biological target: T3, EHEC EspB; assay: as above
T3 construct: also called EspB of enterohemorrhagic E. coli

[7] = biological target: T1, His-tagged EspB (EspB-His), recombinant …; assay: ELISA (FIG. 4A) and SPR (FIG. 4B): Biacore, EspB amine-coupled on chip, mAb 10-90 nM, steady-state fit
[8] = biological target: T4, C. rodentium EspB (Citrobacter rodentium DBS100); assay: western blot of normalized culture supernatants after SDS-PAGE, mAb-EspB-B7 as primary antibody, anti-human IgG HRP
T4 construct: also called EspB of Citrobacter rodentium

[9] = biological target: T5, native EspB of wild-type EPEC; assay: as above
T5 construct: also called EPEC EspB

[10] = biological target: T1, His-tagged EspB (EspB-His), recombinant …; assay: ELISA on coated EspB, antibody in 0.1 M citric acid buffer, pH 7.4, 7.0, 6.6 and 5.6 (one reading for the bundle of four curves)
[11] = biological target: T1, His-tagged EspB (EspB-His), recombinant …; assay: indirect ELISA, 5 ug/ml EspB coated, serial dilution of the antibody, goat anti-human H+L HRP

B1: mAb-EspB-B7 (antibody, V domains shown)
VH: EVQLLESGGGLVQPGGSLRLSCAASGFTFSHYAMNWVRQAPGKGLEWVSAINSNGDSTYYPDTVKDRFTISRDNSKNTLYLQMNSLRAEDTAVYYCARDRRAGYFDYWGQGTLVTVSS
VL: DIVLTQPPSASGTPGQRVTISCSGSRDNIGKNYVSWYQQLPGTAPKLLIYRNNQRPSGVPDRFSGSKSGTSASLAISGLRSEDEADYYCSAWDTSLNAYVFGPGTQLTVL
notes: also called mAb-B7; B7 IgG1
[1]
  EC50 (read off the curve): ~8 nM
[2]
  EC50 (read off the curve): ~3 nM
[3]
  EC50 (read off the curve): ~3 nM
[4]
  EC50 (read off the curve): ~10 nM
[5]
  binding result: no binding
[6]
  binding result: binds
[7]
  Kd: 17.4 nM
[8]
  binding result: binds
[9]
  binding result: binds
[10]
  EC50 (read off the curve): ~20 nM
[11]
  EC50 (read off the curve): ~8 nM
